Results reported in patent US6140052, “cMYC is regulated by Tcf-4” (The Johns Hopkins University, dated 1998).

How the values were obtained:
[1] = target: Myc-tagged hTcf-4 (epitope-tagged hTcf-4 in expression vector pCDNA) (human)
[2] = target: T1, hTcf-4 (endogenous, in nuclear extracts or cells) (human); assay: gel retardation of nuclear extracts of HT29-APC1 cells after 20 h Zn++ induction of APC
T1 chain: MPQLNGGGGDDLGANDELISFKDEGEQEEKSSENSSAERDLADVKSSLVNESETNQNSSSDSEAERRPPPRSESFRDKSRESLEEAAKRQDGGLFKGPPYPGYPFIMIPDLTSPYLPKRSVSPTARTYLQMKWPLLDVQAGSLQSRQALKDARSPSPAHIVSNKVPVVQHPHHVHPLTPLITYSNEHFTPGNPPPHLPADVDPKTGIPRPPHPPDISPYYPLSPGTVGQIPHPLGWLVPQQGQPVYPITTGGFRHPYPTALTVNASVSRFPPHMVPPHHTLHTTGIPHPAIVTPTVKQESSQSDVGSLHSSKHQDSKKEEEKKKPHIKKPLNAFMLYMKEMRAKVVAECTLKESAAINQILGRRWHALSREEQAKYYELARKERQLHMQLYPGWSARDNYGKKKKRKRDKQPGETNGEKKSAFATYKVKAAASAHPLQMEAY
Procedure: Figure 2C: Figure 4: FIG. 4. Constitutive presence of β-catenin-hTcf-4 complexes in APC^{-/-} cells. Gel retardation assays were performed on nuclear extracts from the indicated cell lines before and after a 20-hour exposure to Zn^++. Samples in lanes 1, 4, 7, 10 were incubated under standard conditions. To the samples in lanes 2, 5, 8, 11, 0.25 μg, anti β-catenin was added. To the samples in lanes 3, 6, 9, 12, 0.25 μg of a control (human CD4) antibody was added. N.S., nonspecific band also observed with mutant (nonbinding) probe (lane Mt).
Gel retardation assays were performed as described elsewhere (7). Extracts were prepared from intact nuclei that were washed four times to avoid contamination with cytoplasmic β-catenin. As the optimal Tcf/Lef probe, we used a double-stranded 15-mer […] (SEQ ID NO: 12); the control probe was […] (SEQ ID NO:13). (All oligonudeotides were from Isogene, Holland). The β-catenin antibody was purchased from Transduction Laboratories (Lexington, Ky.). A typical binding reaction contained 3 μg nuclear protein, 0.1 ng radiolabeled probe, 100 ng of dIdC, in 25 μl of binding buffer (60 mm KCl, 1 mM EDTA, 1 mM DTT, 10% glycerol). Samples were incubated for 20 min at room temperature, antibody was added, and the samples incubated 20 min further.

| Molecule | CRT reporter activity in 293 cells cotransfected with a Tcf-4 expression vector [1] [fold] | decrease of the complex relative to uncomplexed hTcf-4 after Zn++ induction of APC [2] [fold] |
| --- | --- | --- |
| β-Cat S33Y (mutant β-catenin from SW48) (from UniProt P35222) | 6 |  |
| β-Cat Δ45 (mutant β-catenin from HCT116, deletion of Ser-45) (from UniProt P35222) | 6 |  |
| β-catenin (endogenous, human colorectal cancer cell lines HT29, SW480) (other) ATQADLMELDMAMEPDRKAAVSHWQQQSYLDSGIHSGATTTAPSLSGKGNPEEEDVDTSQVLYEWEQGFSQSFTQEQVADIDGQYAMTRAQRVRAAMFPETLDEGMQIPSTQFDAAHPTNVQRLAEPSQMLKHAVVNLINYQDDAELATRAIPELTKLLNDEDQVVVNKAAVMVHQLSKKEASRHAIMRSPQMVSAIVRTMQNTNDVETARCTAGTLHNLSHHREGLLAIFKSGGIPALVKMLGSPVDSVLFYAITTLHNLLLHQEGAKMAVRLAGGLQKMVALLNKTNVKFLAITTDCLQILAYGNQESKLIILASGGPQALVNIMRTYTYEKLLWTTSRVLKVLSVCSSNKPAIVEAGGMQALGLHLTDPSQRLVQNCLWTLRNLSDAATKQEGMEGLLGTLVQLLGSDDINVVTCAAGILSNLTCNNYKNKMMVCQVGGIEALVRTVLRAGDREDITEPAICALRHLTSRHQEAEMAQNAVRLHYGLPVVVKLLHPPSHWPLIKATVGLIRNLALCPANHAPLREQGAIPRLVQLLVRAHQDTQRRTSMGGTQQQFVEGVRMEEIVEGCTGALHILARDVHNRIVIRGLNTIPLFVQLLYSPIENIQRVAAGVLCELAQDKEAAEAIEAEGATAPLTELLHSRNEGVATYAAAVLFRMSEDKPQDYKKRLSVELTSSLFRTEPMAWNETADLGLDIGAQGEPLGYRQDDPSYRSFHSGGYGQDALGMDPMMEHEMGGHHPGADYPVDGLPDLGHAQDLMDGLPPGDSNQLAWFDTDL |  | 6 |
